Experimental data from the RNAGym collection of RNA variant scans (doi:10.1093/molbev/msab373).

B1: Azoarcus group I ribozyme (parent)
chain: GUGCCUUGCGCCGGGAAACCACGCAAGGGAUGGUGUCAAAUUCGGCGAAACCUAAGCGCCCGCCCGGGCGUAUGGCAACGCCGAGCCAAGCUUCGGCGCCUGCGCCGAUGAAGGUGUAGAGACUAGACGGCACCCACCUAAGGCAAACGCUAUGGUGAAGGCAUAGUCCAGGGAGUGGCGAAAGUCACACAAACCGG

Variants of: B1
Test: reverse-splicing fitness (ratio to wild type); higher = more active; in vitro selection; Mg2+ level not given
In short: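 An in vitro group I ribozyme library with randomized positions was T7-transcribed and gel-purified. In triplicate, 10 pmol RNA in EPPS pH 7.5 was reacted with 50 pmoles of a 30-nt RNA substrate for 1 h at 37 °C across several added MgCl2 levels (1–48 mM), then stopped with EDTA. Products were reverse transcribed from a substrate-complementary primer, PCR-amplified and sequenced (HiSeq 4000). Fitness is a variant's read proportion after selection over that before, normalised to wild type.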

Variant | reverse-splicing fitness
C82A A111C A120G C150U U176A | 0.0116
C82A A111C A120G C150U U176C | 0.02
C82A A111C A120G C150G C169A | 0.0097
C82A A111C A120G C150G C169G | 0.00748
C82A A111C A120G C150G C169U | 0.00833
C82A A111C A120U A145C C150G C169A U176A | 0.00353
C82A A111C A120U A145C C150G C169A U176C | 0.00263
C82A A111C A120U A145C C150G C169A U176G | 0.00275
C82A A111C A120G C150A C169G U176G | 0.00735
C82A A111C A120G C150A C169G U176C | 0.0234
C82A A111C A120G C150A C169G U176A | 0.0187
C82A A111C A120U A145G C150U U176G | 0.00369
C82A A111C A120U A145G C150U U176C | 0.0108
C82A A111C A120U A145G C150U U176A | 0.00986
C82A A111C A120U A145G C150A C169U U176C | 0.00488
C82A A111C A120U A145G C150A C169U U176A | 0.00642
C82A A111C A120U A145G C150A C169U U176G | 0.00328
C82A A111C A120U A145U C150G C169A U176A | 0.00379
C82A A111C A120U A145U C150G C169A U176C | 0.00377
C82A A111C A120U A145U C150G C169A U176G | 0.00338
C82A A111C A120G A145G C169A U176G | 0.00509

Variant | reverse-splicing fitness
C82A A111C A120G A145G C169A U176C | 0.0288
C82A A111C A120G A145G C169A U176A | 0.0215
C82A A111C A120U A145C C150U C169G U176C | 0.00264
C82A A111C A120U A145C C150U C169G U176A | 0.00406
C82A A111C A120U A145C C150U C169G U176G | 0.00286
C82A A111C A120U A145C C150A C169U | 0.00355
C82A A111C A120U A145C C150A C169G | 0.00308
C82A A111C A120U A145C C150A C169A | 0.00282
C82A A111C A120G C150G C169A U176G | 0.00659
C82A A111C A120G C150G C169A U176C | 0.00996
C82A A111C A120G C150G C169A U176A | 0.0102
C82A A111C A120U A145C C150U C169U U176A | 0.00329
C82A A111C A120U A145C C150U C169U U176G | 0.00284
C82A A111C A120U A145C C150U C169U U176C | 0.00286
C82A A111C A120G A145U C150U C169G U176C | 0.014
C82A A111C A120G A145U C150U C169G U176A | 0.012
C82A A111C A120G A145U C150U C169G U176G | 0.00522
C82A A111C A120G C150A U176G | 0.00789
C82A A111C A120G C150A U176A | 0.0133
C82A A111C A120G C150A U176C | 0.0233
C82A A111C A120U A145C U176C | 0.00818

Variant | reverse-splicing fitness
C82A A111C A120U A145C U176A | 0.00599
C82A A111C A120U A145C U176G | 0.00266
C82A A111C A120G C150A C169U U176A | 0.018
C82A A111C A120G C150A C169U U176C | 0.018
C82A A111C A120G C150A C169U U176G | 0.00682
C82A A111C A120G C169U | 0.00841
C82A A111C A120G C169G | 0.00872
C82A A111C A120G C169A | 0.0095
C82A A111C A120G A145G C169A | 0.0107
C82A A111C A120G A145G C169G | 0.00963
C82A A111C A120G A145G C169U | 0.00908
C82A A111C A120U A145G C169U U176C | 0.00417
C82A A111C A120U A145G C169U U176A | 0.00527
C82A A111C A120U A145G C169U U176G | 0.00234
C82A A111C A120U A145G C150G C169A U176A | 0.0122
C82A A111C A120U A145G C150G C169A U176C | 0.0094
C82A A111C A120U A145G C150G C169A U176G | 0.00541
C82A A111C A120U A145G C169A U176A | 0.00438
C82A A111C A120U A145G C169A U176G | 0.00219
C82A A111C A120U A145G C169A U176C | 0.00466
C82A A111C A120G A145U C150U U176G | 0.00527

Variant | reverse-splicing fitness
C82A A111C A120G A145U C150U U176A | 0.0121
C82A A111C A120G A145U C150U U176C | 0.0188
C82A A111C A120G C150G C169U U176A | 0.00801
C82A A111C A120G C150G C169U U176C | 0.012
C82A A111C A120G C150G C169U U176G | 0.00579
C82A A111C A120G A145U | 0.0152
C82A A111C A120G A145G C150A C169U U176G | 0.00632
C82A A111C A120G A145G C150A C169U U176A | 0.0154
C82A A111C A120G A145G C150A C169U U176C | 0.0139
C82A A111C A120U A145U C150A C169U | 0.00332
C82A A111C A120U A145U C150A C169G | 0.00349
C82A A111C A120U A145U C150A C169A | 0.00298
C82A A111C A120U A145C C150U C169A U176A | 0.00309
C82A A111C A120U A145C C150U C169A U176C | 0.00378
C82A A111C A120U A145C C150U C169A U176G | 0.00233
C82A A111C A120U A145C C150U C169G | 0.00378
C82A A111C A120U A145C C150U C169A | 0.00362
C82A A111C A120U A145C C150U C169U | 0.00379
C82A A111C A120G A145G C150U C169A U176C | 0.0149
C82A A111C A120G A145G C150U C169A U176G | 0.00613
C82A A111C A120G A145G C150U C169A U176A | 0.016
